Drawing on the RNAGym collection of RNA variant scans (doi:10.1093/nar/gkz1192), this text covers self-cleavage for 34 variants.

B1: CPEB3 Ribozyme (parent)
chain: UAACAGGGGGCCACAGCAGAAGCGUUCACGUCGCAGCCCCUGUCAGAUUCUGGUGAAUCUGCGAAUUCUGCUGUAUAUCUC

The series covers variants of B1. In words: self-cleavage, relative activity (ratio to wild type); higher = more cleavage; in vitro, sequencing. The method in brief: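 Barcoded CPEB3 ribozyme mutants, produced by rounds of error-prone PCR, self-cleaved while being transcribed with T7 RNA polymerase for 5 hours at 37°C and during a subsequent 15 min DNase I step before EDTA was added. Sequencing of template-switched cDNA on Illumina gave cleaved and total reads, and DNA sequencing assigned barcodes to variants. Each variant's relative activity is its cleaved/total read fraction divided by the unmutated ribozyme's fraction, averaged across three batches. A variant needed a minimum of 5 reads.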
Consider CAACAGGGGGCCACAGCAGAAGCGUUCACGUCGCAGCCCCUGUCAGAUUCUGGUGAAUCUGCGAAUUCUGCUGUAUAUCAC [U1C U80A], for which the self-cleavage came to 0.82. The same measure for CAACAGGGGGCCACAGCAGAAGCGUUCACGUCGCAGCCCCUGUCAGAUUCUGGUGAAUCUGCGAAUUCUGCUGUAUAUCCC [U1C U80C]: 1. To CAACAGGGGGCCACAGCAGAAGCGUUCACGUCGCAGCCCCUGUCAGAAUCUGGUGAAUCUGCGAAUUCUGCUGUAUAUCUC [U1C U48A] belongs 0.16; to CAACAGGGGGCCACAGCAGAAGCGUUCACGUCGCAGCCCCUGUCAGACUCUGGUGAAUCUGCGAAUUCUGCUGUAUAUCUC [U1C U48C], 0.41. To GAACAGGGGGCCACAGCAGCAGCGUUCACGUCGCAGCCCCUGUCAGAUUCUGGUGAAUCUGCGAAUUCUGCUGUAUAUCUC [U1G A20C] belongs 0.55; to GAACAGGGGGCCACAGCGGAAGCGUUCACGUCGCAGCCCCUGUCAGAUUCUGGUGAAUCUGCGAAUUCUGCUGUAUAUCUC [U1G A18G], 0.61; to CAACAGGGGGCCACAGCAGAAGCGUUCACGUCGCAGCCCCUGUCAGAUUCUGGUGAAUCUGCGAAUUCUUCUGUAUAUCUC [U1C G70U], 0.32. Take CAACAGGGGGCCACAGCAGAAGCGUUCACGUCGCAGCCCCUGUCAGAUUCUGGUGAAUCUGCGAAUUCUCCUGUAUAUCUC [U1C G70C]: the self-cleavage came to 0.35. To CAACAGGGGGCCACAGCAGAAGCGUUCACCUCGCAGCCCCUGUCAGAUUCUGGUGAAUCUGCGAAUUCUGCUGUAUAUCUC [U1C G30C] belongs 0.14; to CAACAGGGGGCCACAGCAGAAGCGUUCACGUCGCAGCCCCUGUCAGAUUCUGGUGAAACUGCGAAUUCUGCUGUAUAUCUC [U1C U58A], 0.46; to CAACAGGGGGCCACAGCAGAAGCGUUCACGUCGCAGCCCCUGUCAGAUUCUGGUGAACCUGCGAAUUCUGCUGUAUAUCUC [U1C U58C], 0.63. For the variant CAACAGGGGGCCACAGCAGAAGCGUUCACGUCGCAGCCCCUAUCAGAUUCUGGUGAAUCUGCGAAUUCUGCUGUAUAUCUC [U1C G42A], the self-cleavage was found to be 0.45. For the variant CAACAGGGGGCCACAGCAGAAGCGUUCACGUCGCAGCCCCUGUCAGAUUCUGGUGAAUCCGCGAAUUCUGCUGUAUAUCUC [U1C U60C], the self-cleavage was 0.39. Take CAACAGGGGGCCACAGCAGAAGCGUUCACGUCGCAGCCCCUGUCAGAUUCUGGUGAAUCAGCGAAUUCUGCUGUAUAUCUC [U1C U60A]: the self-cleavage was 0.42. As to CAACAGGGGGCCACAGCAGAAGCGUUCACGUCGCAGCCCCUGUCAGAUACUGGUGAAUCUGCGAAUUCUGCUGUAUAUCUC [U1C U49A], the self-cleavage stood at 0.61. The same measure for CAACAGGGGGCCACAGCAGAAGCGUUCACGUCGCAGCCCCUGUCAGAUCCUGGUGAAUCUGCGAAUUCUGCUGUAUAUCUC [U1C U49C]: 0.37; for CAACAGGGGGCCACAGCAGAAGCGUUCACGUCGCAGCCCCUGUCAGAUUCUGGAGAAUCUGCGAAUUCUGCUGUAUAUCUC [U1C U54A]: 1.03. To CAACAGGGGGCCACAGCAGAAGCGUUCACGUCGCAGCCCCUGUCAGAUUCUGGGGAAUCUGCGAAUUCUGCUGUAUAUCUC [U1C U54G] belongs 0.67; to CAACAGGGGGCCACAGCAGAAGCGUUCACGUCGCAGCCCCUGUCAGAUUCUGGCGAAUCUGCGAAUUCUGCUGUAUAUCUC [U1C U54C], 0.68; to GAACAGGGGGCCACAGCAGAAGCGUUCACGUCGCAGCCCCUGUCAGAUUCUGGUGAAUCUGCGAAUUCUGCUGUAUAUCUC [U1G], 1.01. As to GAACAGGGGGCCACGGCAGAAGCGUUCACGUCGCAGCCCCUGUCAGAUUCUGGUGAAUCUGCGAAUUCUGCUGUAUAUCUC [U1G A15G], the self-cleavage worked out at 0.84. For the variant CAACAGGGGGCCACAGCAGAAGCGUUCACGUCGCAGCCCCUGUCAGAUUCUGGUGAAUCUGCAAAUUCUGCUGUAUAUCUC [U1C G63A], the self-cleavage stood at 0.84. To CAACAGGGGGCCACAGCAGAAGCGUUCACGUCGCAGCCCCUGUCAGAUUCUGGUGAAUCUGCGAAUUCUGCAGUAUAUCUC [U1C U72A] belongs 0.66; to CAACAGGGGGCCACAGCAGAAGCGUUCACGUCGCAGCCCCUGUCAGAUUCUGGUGAAUCUGCGAAUUCUGCCGUAUAUCUC [U1C U72C], 0.82; to CAACAGGGGGCCACAGCAGAAGCGUUCACGUCGCAGCCCCUGUCAGAUUCUGGUGAAUCUGCGAAUUCUGCGGUAUAUCUC [U1C U72G], 1.

As to CAACAGGGGGCCACAGCAGAAGCGUUCACGUCGCAGCCCCUGUCAGAUUCUGGUGAAUCUGCGAAUUCCGCUGUAUAUCUC [U1C U69C], the self-cleavage was 0.46. Regarding CAACAGGGGGCCACAGCAGAAGCGUUCACGUCGCAGCCCCUGUCAGAUUCUGGUGAAUCUGCGAAUUCAGCUGUAUAUCUC [U1C U69A], the self-cleavage amounted to 0.44.

In the case of CAACAGGGGGCCACAGCAGAAGCGUUCACGACGCAGCCCCUGUCAGAUUCUGGUGAAUCUGCGAAUUCUGCUGUAUAUCUC [U1C U31A], the self-cleavage was 0.43. The same measure for CAACAGGGGGCCACAGCAGAAGCGUUCACGCCGCAGCCCCUGUCAGAUUCUGGUGAAUCUGCGAAUUCUGCUGUAUAUCUC [U1C U31C]: 0.7.

Regarding CAACAGGGGGCCACAGCAGAAGCGUUCACGUCGCAGCCCCUGCCAGAUUCUGGUGAAUCUGCGAAUUCUGCUGUAUAUCUC [U1C U43C], the self-cleavage worked out at 0.57. To CAACAGGGGGCCACAGCAGAAGCGUUCACGUCGCAGCCCCUGACAGAUUCUGGUGAAUCUGCGAAUUCUGCUGUAUAUCUC [U1C U43A] belongs 1.1; to CAACAGGGGGCCACAGCAGAAGCGUUCACGUCGCAGCCCCUGUCAGAUUCUGGUGAAUCUGCGAAUUCUGCUGUAUAGCUC [U1C U78G], 0.94.

On to CAACAGGGGGCCACAGCAGAAGCGUUCACGUCGCAGCCCCUGUCAGAUUCUGGUGAAUCUGCGAAUUCUGCUGUAUAACUC [U1C U78A], for which the self-cleavage is 1.11. To CAACAGGGGGCCACAGCAGAAGCGUUCACGUCGCAGCCCCUGUCAGAUUCUGGUGAAUCUGCGAAUUCUGCUGUAUACCUC [U1C U78C] belongs 0.8.
